B3: anti-human IDO2 monoclonal antibody 18-1 (antibody, V domains shown)
VH: QVRLQQPGAELVKPGASVKLSCKASGYTFTSYWMHWVKQRPGQGLEWIGEINPSTGRTNYNERFRSKATLTVDKFSTTAYMQFSSLTSEDSAVYYCVGLRFAYWGQGTLVSVSA
VL: DVVMTQTPLSLPVSFGDQVSISCRSSQSLADSYGNTYLSWYLHKPGQSPQLLIYGISNRFSGVPDRFSGSGSGTDFTLKISTIKPEDLGMYYCLQGTHQPLTFGAGTKLELKR
notes: Mouse hybridoma antibody; It was detected with an anti-mouse IgG Fc-specific secondary antibody; also called mAb 18-1

The target of test [1] is B3. In words: competitive ELISA; soluble peptide titrated against 1 µg/ml mAb in solution; competitor: coated recombinant human IDO2 (100 ng); plate-bound mAb detected with anti-mouse IgG Fc HRP and ABTS. The procedure: FIGS. 2A and 2B show results of a competitive ELISA that was developed to test the specificity of the antibodies. 100 ng of the recombinant human IDO2 protein was used to coat the ELISA plate. A constant amount (1 μg/ml) of IDO2 antibody was incubated in solution with specified concentrations of soluble peptide. If the antibody interacted with the soluble peptide, the antibody was then unavailable to bind the coated antigen. Anti-IDO2 Ig that bound the fixed protein was detected with an anti-mouse IgG FC-specific HRP secondary antibody and ABTS substrate. Data is presented as Mean±SD. […] FIG. 2A is a graph of a competitive ELISA comparing the recognition of the three anti-human IDO2 mAbs of FIG. 1 to the human epitope, plotting absorbance vs. epitope peptide concentration. FIG. 2B is a graph of a competitive ELISA comparing the recognition of the three anti-human IDO2 mAbs of FIG. 1 to the mouse epitope, plotting absorbance vs. epitope peptide concentration.
A competitive ELISA was developed to test the specificity of the antibodies. 100 ng of the recombinant human IDO2 protein was used to coat the ELISA plate. A constant amount (1 μg/ml) of IDO2 antibody was incubated in solution with specified concentrations of soluble peptide. […] Anti-IDO2 Ig that bound the fixed protein was detected with an anti-mouse IgG FC-specific HRP secondary antibody and ABTS substrate.
For orientation: ELISA stands for enzyme-linked immunosorbent assay.

Test [2] deals with T1, human IDO1 with V5 tag, expressed in T-REx cells (human, UniProt P14902 1-403).
T1 construct: Cell extract fractionated for the Western blot; not shown: V5 tag
Briefly: Western blot of T-REx cell extracts; HRP secondary antibody, chemiluminescence. The protocol:
(§1) FIG. 3 is a Western blot analysis using IDO-expressing Tᵣₑₓ cells. All IDO expressed proteins mouse and human IDO 1 and IDO2 contain a V5 tag. […] Cell extracts for IDO expressing cells or the parental T-REX line were prepared and fractionated as previously described (PMID: 17671174 & 26717206). Detection of indicated proteins was done using standard blotting methods, HRP conjugated secondary antibodies and chemiluminescence detection reagents.
(§2) A Western blot analysis was conducted using IDO-expressing Tᵣₑₓ cells. All IDO expressed proteins mouse and human IDO 1 and IDO2 containing a V5 tag. […] Cell extracts for IDO expressing cells or the parental T-REX line were prepared and fractionated as previously described (See US2019/0062452, incorporated by reference herein). Detection of indicated proteins was done using standard blotting methods, HRP conjugated secondary antibodies and chemiluminescence detection reagents.

The target of test [3] is T2, mouse IDO1 with V5 tag, expressed in T-REx cells (mouse, UniProt P28776 1-407).
T2 construct: Cell extract fractionated for the Western blot; also called murine IDO1; not shown: V5 tag
Described as above. The protocol: as §1, §2

For test [4], the target named is T3, recombinant human IDO2 protein (human, UniProt Q6ZQW0 1-407, limits assumed).
T3 construct: also called human Indoleamine 2,3-Dioxygenase 2; human IDO2 recombinant protein
T3 sequence: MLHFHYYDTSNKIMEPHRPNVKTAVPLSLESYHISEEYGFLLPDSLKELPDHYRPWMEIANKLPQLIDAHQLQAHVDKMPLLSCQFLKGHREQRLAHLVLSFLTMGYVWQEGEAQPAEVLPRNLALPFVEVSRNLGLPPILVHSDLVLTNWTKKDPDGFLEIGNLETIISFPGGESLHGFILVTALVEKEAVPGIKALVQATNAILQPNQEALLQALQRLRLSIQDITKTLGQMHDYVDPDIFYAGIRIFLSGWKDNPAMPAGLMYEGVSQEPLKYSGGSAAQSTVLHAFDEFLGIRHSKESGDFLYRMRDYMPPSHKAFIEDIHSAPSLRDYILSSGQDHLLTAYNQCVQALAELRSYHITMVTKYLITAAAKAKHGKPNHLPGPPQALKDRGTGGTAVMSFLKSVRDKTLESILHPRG
In words: ELISA; plate coated with 100 ng recombinant human IDO2; detection with anti-mouse IgG Fc-specific HRP and ABTS. The protocol: FIG. 1 is a graph showing the binding curves of three anti-human IDO2 monoclonal antibodies 13-3, 18-1 and 20-10 described herein and their binding concentrations vs. human IDO2 recombinant protein. Three cloned hybridomas were generated against the human IDO2 amino acids #331-351 (NP 919270; SEQ ID NO: 23). ELISA analysis compares the binding of the anti-human IDO2 antibodies (mAbs) to recombinant human IDO2 protein (100 ng of recombinant human IDO2 protein was used to coat the ELISA plate). Increasing concentrations of mAb were incubated with the coated protein and anti-IDO2 Ig that bound the fixed protein was detected with an anti-mouse IgG Fc-specific HRP secondary antibody and ABTS substrate. Data is presented as Mean±SD.
Three cloned hybridomas were generated against the human IDO2 amino acids #331-351 (NP 919270; SEQ ID NO: 23). ELISA analysis compares the binding of the anti-human IDO2 antibodies (mAbs) to recombinant human IDO2 protein (100 ng of recombinant human IDO2 protein was used to coat the ELISA plate). Increasing concentrations of mAb were incubated with the coated protein and anti-IDO2 Ig that bound the fixed protein was detected with an anti-mouse IgG Fc-specific HRP secondary antibody and ABTS substrate.

T1 sequence (P14902 whole entry): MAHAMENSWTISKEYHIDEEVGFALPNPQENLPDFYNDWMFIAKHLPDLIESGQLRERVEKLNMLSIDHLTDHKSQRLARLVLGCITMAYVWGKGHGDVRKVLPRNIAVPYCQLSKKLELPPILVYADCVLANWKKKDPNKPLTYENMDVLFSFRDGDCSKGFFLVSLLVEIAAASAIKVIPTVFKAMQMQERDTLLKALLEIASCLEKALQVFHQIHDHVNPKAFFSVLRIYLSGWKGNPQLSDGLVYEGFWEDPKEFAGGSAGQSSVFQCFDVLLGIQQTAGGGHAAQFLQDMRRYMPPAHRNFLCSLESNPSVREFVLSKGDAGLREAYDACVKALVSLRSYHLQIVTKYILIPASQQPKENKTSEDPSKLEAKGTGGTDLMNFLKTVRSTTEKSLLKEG
T2 sequence (P28776 whole entry): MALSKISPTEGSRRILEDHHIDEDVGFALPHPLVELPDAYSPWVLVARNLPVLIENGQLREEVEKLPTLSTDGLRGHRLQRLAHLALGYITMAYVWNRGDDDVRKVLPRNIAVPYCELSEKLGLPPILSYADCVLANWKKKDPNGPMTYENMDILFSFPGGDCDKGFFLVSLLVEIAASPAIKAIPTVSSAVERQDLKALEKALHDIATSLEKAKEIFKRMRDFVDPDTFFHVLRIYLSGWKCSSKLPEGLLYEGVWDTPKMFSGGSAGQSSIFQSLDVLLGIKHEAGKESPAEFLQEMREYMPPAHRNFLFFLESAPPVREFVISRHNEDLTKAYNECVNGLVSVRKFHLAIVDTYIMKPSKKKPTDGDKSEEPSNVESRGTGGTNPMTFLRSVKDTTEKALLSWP

As to RDYILSSGQDHLLTAYNQCVQ (also called hIDO2 Peptide) [Human Epitope], the “IC50 (read off the curve)” value in test [1] was roughly 7 µM.

B1: anti-human IDO2 monoclonal antibody 13-3 (antibody, V domains shown)
VH: QVRLQQPGAELVKPGASVKLSCKASGYTFTSYWMHWVKQRPGQGLEWIGEINPSTGRTNYNERFRSKATLTVDKFSTTAYMQFSSLTSEDSAVYYCVGLRFAYWGQGTLVSVSA
VL: DVVMTQTPLSLPVSFGDQVSISCRSSQSLADSYGNTYLSWYLHKPGQSPQLLIYGISNRFSGVPDRFSGSGSGTDFTLKISTIKPEDLGMYYCLQGTHQPLTFGAGTKLELKR
notes: Mouse hybridoma antibody raised against human IDO2 amino acids 331-351; It was detected with an anti-mouse IgG Fc-specific secondary antibody; also called mAb 13-3
On to B1, for which the binding result in test [2] and in test [3] was “no binding” each time. Besides, the concentration giving a half-maximal response (EC50 (read off the curve)) in test [4] is roughly 0.01 µg/mL.

B2: anti-human IDO2 monoclonal antibody 20-10 (antibody, V domains shown)
VH: QVRLQQPGAELVKPGASVKLSCKASGYTFTSYWMHWVKQRPGQGLEWIGEINPSTGRTNYNERFRSKATLTVDKFSTTAYMQFSSLTSEDSAVYYCVGLRFAYWGQGTLVSVSA
VL: DVVMTQTPLSLPVSFGDQVSISCRSSQSLADSYGNTYLSWYLHKPGQSPQLLIYGISNRFSGVPDRFSGSGSGTDFTLKISTIKPEDLGMYYCLQGTHQPLTFGAGTKLELKR
notes: Mouse hybridoma antibody; It was detected with an anti-mouse IgG Fc-specific secondary antibody; also called mAb 20-10
As to B2, the binding result in test [2] and in test [3] was “no binding” throughout. Besides, the concentration giving a half-maximal response (EC50 (read off the curve)) in test [4] is roughly 0.02 µg/mL.
As for B3, the binding result in test [2] and in test [3] was “no binding” in each case. In test [4], the “EC50 (read off the curve)” value is roughly 0.02 µg/mL.
For RDYILASGPGDCLMAYNQCVE [murine IDO2 epitope peptide (amino acids 331-351 of murine IDO2)], the “IC50 (read off the curve)” value in test [1] was roughly 9 µM.

Usually EC50 (read off the curve) stands for the concentration needed to bring the measured effect to its halfway point.

For the origin of these results see patent publication US20230242674A1 (LANKENAU INSTITUTE FOR MEDICAL RESEARCH, published 2023).
